Series [1] deals with thermostabilised SERT mutants SAH6 and SAH7. The experiment in a line: Competition binding, statements covering both thermostabilised mutants. More on the design: species or system rat. The note with it: over SAH6 and SAH7.
Method: The samples were incubated for 2 h at 30 °C and then filtered on 96-well glass fibre plates (Millipore) pre-treated with 200 μl of 0.1% polyethyleneimine. The filters were washed three times with 200 μl ice-cold SERT buffer [100 mM NaCl and 20 mM Tris (pH 7.4)], dried for 1 h at 50 °C prior to liquid scintillation counting. Competition binding assays were performed as above, but a range of concentrations of unlabelled ligand was included and a final concentration of 0.2 nM [^125I]RTI55 was used.
In series [2] the test system is T-REx-293 cells expressing SAH6-GFP, SAH7-GFP or SERT-GFP. As to the kind of experiment: [3H]5HT uptake assay in stable T-REx cell lines. The class given is cell-based. The note with it: tetracycline-induced stable cell lines, 2 μM [3H]5HT, 25 °C, 3 min. The text has this:
[^3H]5HT was released by rupturing the cells with 2% SDS, which was quantified by liquid scintillation counting.

The procedure of series [3]: Thermostability assays usually involved adding the radioligand to detergent-solubilised membrane proteins,[9] but the only detergent that SERT was stable in was digitonin,[34] which is unsuitable for crystallography. Therefore, a different assay where an inhibitor was used to stabilise the transporter was developed. This entailed adding [^125I]RTI55 to the T-REx-SERT cells followed by detergent solubilisation and then the thermostability assay (heating samples at various temperatures for 30 min). The apparent Tm was defined as the temperature where 50% of the transporter still bound the radiolabelled inhibitor (Fig. S2).
The thermostability of detergent-solubilised [^125I]RTI55-bound SERT was determined as previously described for GPCRs.[5,6,8,9] Briefly, cells containing unpurified SERT were incubated with 1 nM [^125I]RTI55 for 30 min on ice, which were then solubilised with detergent on ice for 30 min before incubation at varying temperatures for 30 min. The radioligand bound to the membrane protein was separated from free radioligand by centrifugal gel filtration and the radioligand bound to the eluted transporter measured by liquid scintillation counting.

Consider 2 molecules from PMC3678023 (Journal of Molecular Biology, 2013).

As for ibogaine, the “Lower affinity versus wild-type transporter” value in series [1] is “up to 90 fold”.

B1: wild-type SERT: rat serotonin transporter, wild type (protein, UniProt P31652 1-630, looked up)
Sodium-dependent serotonin …: METTPLNSQKVLSECKDREDCQENGVLQKGVPTTADRAEPSQISNGYSAVPSTSAGDEASHSIPAATTTLVAEIRQGERETWGKKMDFLLSVIGYAVDLGNIWRFPYICYQNGGGAFLLPYTIMAIFGGIPLFYMELALGQYHRNGCISIWRKICPIFKGIGYAICIIAFYIASYYNTIIAWALYYLISSLTDRLPWTSCTNSWNTGNCTNYFAQDNITWTLHSTSPAEEFYLRHVLQIHQSKGLQDLGTISWQLTLCIVLIFTVIYFSIWKGVKTSGKVVWVTATFPYIVLSVLLVRGATLPGAWRGVVFYLKPNWQKLLETGVWVDAAAQIFFSLGPGFGVLLAFASYNKFNNNCYQDALVTSVVNCMTSFVSGFVIFTVLGYMAEMRNEDVSEVAKDAGPSLLFITYAEAIANMPASTFFAIIFFLMLITLGLDSTFAGLEGVITAVLDEFPHIWAKRREWFVLIVVITCVLGSLLTLTSGGAYVVTLLEEYATGPAVLTVALIEAVAVSWFYGITQFCSDVKEMLGFSPGWFWRICWVAISPLFLLFIICSFLMSPPQLRLFQYNYPHWSIVLGYCIGMSSVICIPTYIIYRLISTPGTLKERIIKSITPETPTEIPCGDIRMNAV
Regarding B1, the “[3H]5HT transport” value in series [2] was “robust transport”. Also, the “Apparent Tm” value in series [3] ([125I]RTI55-bound, solubilised in 0.1% DDM, heated 30 min) worked out at 28 °C. Also, the “Transporter remaining functional after heating” value in series [3] (single-temperature assay, 28 °C for 30 min) is “approximately 40%”.
